Assays:
human Jagged1 [1] = molecular target: T1, human Jagged1 (human, UniProt P78504 34-1218); assay: FMAT, hybridoma supernatant, 293T cells with human Jagged1
T1 construct: whole, on cells
In short: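 Transfected 293T cells (3000 expressing plus 15000 mock-transfected per well), in PBS with 2% FBS, were mixed with hybridoma supernatant and Cy5 goat anti-human IgG Fc (750 ng/ml final). After 3 h at room temperature, binding was read by FMAT fluorescence. Notch1/Fc served as positive control for DLL4 and Notch3/Fc for Jagged1.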

full length human DLL4 [2] = molecular target: T2, full length human DLL4 (human, UniProt Q9NR61 27-685); assay: FMAT competition, purified antibody vs Alexa-647 human Notch1/Fc, 293T cells with human DLL4
T2 construct: whole, on cells; also called native DLL4 expressed in HEK293 cells
T2 sequence (Q9NR61 27-685): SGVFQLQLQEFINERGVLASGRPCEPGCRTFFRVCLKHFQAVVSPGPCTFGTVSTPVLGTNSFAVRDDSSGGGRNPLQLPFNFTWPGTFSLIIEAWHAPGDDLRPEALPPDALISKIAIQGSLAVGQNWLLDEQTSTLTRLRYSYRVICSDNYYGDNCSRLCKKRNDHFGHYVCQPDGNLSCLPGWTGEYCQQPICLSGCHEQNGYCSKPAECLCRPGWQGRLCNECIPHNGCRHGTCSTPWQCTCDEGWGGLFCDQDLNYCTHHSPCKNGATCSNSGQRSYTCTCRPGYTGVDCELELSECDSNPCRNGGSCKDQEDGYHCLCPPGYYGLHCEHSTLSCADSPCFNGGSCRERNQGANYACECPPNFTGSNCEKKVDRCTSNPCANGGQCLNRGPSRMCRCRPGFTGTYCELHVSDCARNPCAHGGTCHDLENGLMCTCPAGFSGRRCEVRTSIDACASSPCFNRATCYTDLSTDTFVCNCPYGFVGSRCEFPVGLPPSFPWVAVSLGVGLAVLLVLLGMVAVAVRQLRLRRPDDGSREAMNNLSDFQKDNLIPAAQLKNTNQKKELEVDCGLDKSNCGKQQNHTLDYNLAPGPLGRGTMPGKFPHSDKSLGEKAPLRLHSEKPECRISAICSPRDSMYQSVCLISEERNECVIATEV
In short: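 293T cells expressing full-length DLL4, mixed with untransfected cells, were preincubated 1 h at 4 °C with serially diluted purified antibody (from 5 μg/ml). Alexa-647 human Notch1/Fc (100 ng/ml stock) was then added for 3 h at 4 °C; bound Notch1/Fc measured by FMAT fluorescence.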

human Dll1 = molecular target: T3, human Dll1 (human, UniProt O00548 18-723); assay: FACS, 15 µg/ml, 293T cells with human Dll1 vs mock
T3 construct: whole, on cells
T3 sequence (looked up): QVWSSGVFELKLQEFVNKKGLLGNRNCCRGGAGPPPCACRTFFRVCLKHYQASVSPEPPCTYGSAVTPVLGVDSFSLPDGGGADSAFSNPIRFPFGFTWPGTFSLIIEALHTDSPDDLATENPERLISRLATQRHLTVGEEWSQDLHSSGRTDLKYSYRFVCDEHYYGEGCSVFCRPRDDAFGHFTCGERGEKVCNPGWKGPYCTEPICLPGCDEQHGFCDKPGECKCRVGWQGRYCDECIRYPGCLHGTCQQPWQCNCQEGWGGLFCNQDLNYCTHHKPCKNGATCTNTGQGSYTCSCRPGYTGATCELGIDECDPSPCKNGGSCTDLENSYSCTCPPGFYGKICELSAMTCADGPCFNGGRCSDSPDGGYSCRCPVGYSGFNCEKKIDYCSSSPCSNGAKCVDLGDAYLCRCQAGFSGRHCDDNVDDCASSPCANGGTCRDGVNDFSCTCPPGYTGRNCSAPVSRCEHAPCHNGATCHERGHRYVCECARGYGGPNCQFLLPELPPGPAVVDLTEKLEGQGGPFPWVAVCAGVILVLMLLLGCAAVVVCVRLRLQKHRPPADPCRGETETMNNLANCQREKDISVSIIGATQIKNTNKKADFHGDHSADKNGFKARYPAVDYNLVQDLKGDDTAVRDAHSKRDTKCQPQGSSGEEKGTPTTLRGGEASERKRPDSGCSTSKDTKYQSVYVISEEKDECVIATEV
In short: (§1)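 Antibodies at 5 or 15 μg/ml final in PBS/2% FCS incubated 1 h at 4 °C with transfected cells. Binding taken as the geometric mean fluorescence shift in Jagged1- or Dll1-transfected cells versus mock-transfected cells.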

full length human DLL4 [3] = molecular target: T2, full length human DLL4; assay: FACS competition, unlabeled antibody vs competitor Alexa-647 4B4, HEK293 cells with human DLL4
Procedure: The ability of the purified DLL4 antibodies to inhibit the binding of other DLL4 antibodies to human DLL4 was assessed using a FACS assay. Briefly, antibodies were directly labelled with Alexa-647 using a commercially available labelling kit (e.g. Molecular Probes catalog #A30009, A-20186) as per the manufacturer's instructions. To determine the level of cross-competition, unlabelled anti-DLL4 antibodies (final concentration: 10-0.01 μg/ml) diluted in PBS containing 2% FCS were added to DLL4-expressing HEK 293 cells (as described in example 6; 50000 cells/well diluted in PBS containing 2% FCS) and incubated for 1 h at 4° C. Subsequently, Alexa-647 labeled anti-DLL4 antibodies were added at a final concentration of 0.1 μg/ml and plates were incubated for a further 1 h at 4° C. prior to washing and reading on a FACSCalibur instrument. Data that summarizes the ability of unlabeled antibodies (10, 1, 0.1 μg/ml) to compete with labeled 21H3RK for binding to human DLL4 is included in FIG. 3. Additional data that summarizes the ability of unlabeled antibodies to compete with labeled 21H3RK and 4B4 for binding to human DLL4 is included in Table 22.

human Jagged1 [4] = molecular target: T1, human Jagged1; assay: FACS, 5 µg/ml, 293T cells with human Jagged1 vs mock
In short: as §1

T1 sequence (P78504 34-1218): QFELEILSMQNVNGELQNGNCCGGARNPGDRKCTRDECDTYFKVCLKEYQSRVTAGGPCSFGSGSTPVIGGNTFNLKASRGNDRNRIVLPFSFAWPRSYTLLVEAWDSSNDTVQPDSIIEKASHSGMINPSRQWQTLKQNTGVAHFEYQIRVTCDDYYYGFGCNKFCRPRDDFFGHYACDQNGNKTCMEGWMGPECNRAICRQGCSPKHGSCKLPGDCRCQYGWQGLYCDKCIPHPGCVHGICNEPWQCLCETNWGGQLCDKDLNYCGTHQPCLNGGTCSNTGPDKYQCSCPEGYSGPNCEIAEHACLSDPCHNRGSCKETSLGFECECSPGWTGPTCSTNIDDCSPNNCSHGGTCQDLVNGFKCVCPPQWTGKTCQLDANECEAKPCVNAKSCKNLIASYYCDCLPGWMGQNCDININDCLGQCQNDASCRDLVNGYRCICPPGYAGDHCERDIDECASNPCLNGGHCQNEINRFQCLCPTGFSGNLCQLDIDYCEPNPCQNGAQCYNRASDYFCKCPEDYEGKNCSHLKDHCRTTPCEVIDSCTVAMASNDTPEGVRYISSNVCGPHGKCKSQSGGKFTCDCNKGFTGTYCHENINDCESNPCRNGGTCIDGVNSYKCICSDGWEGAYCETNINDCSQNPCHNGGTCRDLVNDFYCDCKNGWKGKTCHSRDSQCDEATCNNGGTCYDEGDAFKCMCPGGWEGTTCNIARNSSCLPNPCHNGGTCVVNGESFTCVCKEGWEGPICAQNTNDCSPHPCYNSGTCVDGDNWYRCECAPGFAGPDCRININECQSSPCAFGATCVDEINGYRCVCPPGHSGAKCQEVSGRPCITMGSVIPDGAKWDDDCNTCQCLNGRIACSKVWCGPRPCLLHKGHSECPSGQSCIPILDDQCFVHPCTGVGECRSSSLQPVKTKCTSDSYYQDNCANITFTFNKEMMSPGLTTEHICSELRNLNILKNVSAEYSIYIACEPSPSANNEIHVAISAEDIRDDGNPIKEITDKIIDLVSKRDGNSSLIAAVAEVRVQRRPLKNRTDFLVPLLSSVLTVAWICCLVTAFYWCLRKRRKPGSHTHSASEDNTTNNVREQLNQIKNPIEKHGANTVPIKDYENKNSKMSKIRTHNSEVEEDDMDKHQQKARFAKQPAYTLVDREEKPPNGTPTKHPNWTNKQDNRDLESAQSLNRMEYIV

B1: 4B4 (antibody, IgG4, V domains shown)
VH: QVLLIQSGAEVKKPGASVQVSCKASGYTFTNYGVIWVRQAPGQGLEYMGWISAYNGNTNYAQKLQDRVTMTSDTSTTTAYMELRSLRSDDTAVYYCARELGSSFDYWGQGTLVTVSS
VL: SYELTQPPSVSVSPGQTARITCSGDALPKKYAYWYQQKSGQAPVLVIYEDIKRPSGIPERFSGSSSGTMATLTISGAQVEDEADYYCFSTDNSGDHSVFGGGTKLTVL
notes: Fully human; used for IgG4 rows and where no isotype is printed; also called 4B4 IgG4; 4B4.1
- Count (human Jagged1 [1]): 2
- FL1 (human Jagged1 [1]): 2590
- FL1 x count (human Jagged1 [1]): 5180
- % inhibition at 0.020 nM (full length human DLL4 [2]): 14%
- % inhibition at 0.070 nM (full length human DLL4 [2]): 21%
- % inhibition at 0.21 nM (full length human DLL4 [2]): 23%
- % inhibition at 0.62 nM (full length human DLL4 [2]): 65%
- % inhibition at 1.9 nM (full length human DLL4 [2]): 95%
- % inhibition at 5.6 nM (full length human DLL4 [2]): 127%
- % inhibition at 16.7 nM (full length human DLL4 [2]): 136%
- IC50 (full length human DLL4 [2]): 0.72 nM
- Dll1/mock ratio (human Dll1): 1.23
- IC50 (full length human DLL4 [3]): 0.348 µg/mL
- Jagged1/mock ratio (human Jagged1 [4]): 1.09

B2: 21H3 (antibody, IgG4, V domains shown)
VH: QVQLVQSGAEVKKPGASVKVSCKASGYTFTNYGITWVRQAPGQGPEWMGWISAYNGNTNYAQKLQDRVTVTTDTSTSTAYMELRSLRSDDTAVYYCARDRVPRIPVTTEAFDIWGQGTMVTVSS
VL: QSVLTQPPSASGTPGQRVTISCSGSSSNIGSYFVYWYQQLPGTAPKLLIYRNNQRPSGVPDRFSGSESGTSASLAISGLRSEDEADYYCAAWDDSLSGHWVFGGGTRLTVL
notes: Fully human; used for IgG4 rows and where no isotype is printed; also called 21H3 IgG4
- Count (human Jagged1 [1]): 0
- FL1 (human Jagged1 [1]): 0
- FL1 x count (human Jagged1 [1]): 0
- % inhibition at 0.020 nM (full length human DLL4 [2]): -17%
- % inhibition at 0.070 nM (full length human DLL4 [2]): -2%
- % inhibition at 0.21 nM (full length human DLL4 [2]): 25%
- % inhibition at 0.62 nM (full length human DLL4 [2]): 9%
- % inhibition at 1.9 nM (full length human DLL4 [2]): 68%
- % inhibition at 5.6 nM (full length human DLL4 [2]): 115%
- % inhibition at 16.7 nM (full length human DLL4 [2]): 124%
- IC50 (full length human DLL4 [2]): 1.73 nM
- Dll1/mock ratio (human Dll1): 1.16
- IC50 (full length human DLL4 [3]): 0.274 µg/mL
- Jagged1/mock ratio (human Jagged1 [4]): 1.12

B3: 9G8 (antibody, IgG4, V domains shown)
VH: QLQLQESGPGLVKPSETLSLSCTVSGGSISSSSSYWGLIRQPPGKGLEWIGSIYYSGSTYYSPSLKSRVSISVDTSKNQFSLKLSSVTAADTAVYFCARQGYGGHPDVFDIWGQGTMVTVSS
VL: SSELTQSPSVSVSPGQTARITCSGDKLGDVYVCWYQQKTGQSPVLVIYEDTKRPSGIPERFSGSNSGNTATLTISGTQVMDEADYYCQAWDSTTAVIFGGGTKLTVL
notes: Fully human; used for IgG4 rows and where no isotype is printed; also called 9G8 IgG4
- Count (human Jagged1 [1]): 0
- FL1 (human Jagged1 [1]): 0
- FL1 x count (human Jagged1 [1]): 0
- % inhibition at 0.020 nM (full length human DLL4 [2]): 10%
- % inhibition at 0.070 nM (full length human DLL4 [2]): 14%
- % inhibition at 0.21 nM (full length human DLL4 [2]): 33%
- % inhibition at 0.62 nM (full length human DLL4 [2]): 22%
- % inhibition at 1.9 nM (full length human DLL4 [2]): 68%
- % inhibition at 5.6 nM (full length human DLL4 [2]): 125%
- % inhibition at 16.7 nM (full length human DLL4 [2]): 121%
- IC50 (full length human DLL4 [2]): 1.88 nM
- Dll1/mock ratio (human Dll1): 1.23
- IC50 (full length human DLL4 [3]): 0.856 µg/mL
- Jagged1/mock ratio (human Jagged1 [4]): 1.07

B4: 2H10 (antibody, IgG4, V domains shown)
VH: QVQLVESGGGVVQPGRSLRLSCAASGFTFSRHGMHWVRQAPGKGLEWVAVVWFDGSNIYYADSVKGRFTISRDNSKNTLYLQMNSLRAEDTAMYYCARDSRIAAADYWGQGTLVTVSS
VL: SYELTQPPSVSVSPGQTVSITCSGDKLGDKYVCWYQQKPGQSPVLVIYQESKRPSGIPERFSGSSSGNTATLTISGTQAMDEADYYCQTWDSSLVVFGGGTKLTVL
notes: Fully human; used for IgG4 rows and where no isotype is printed; also called 2H10 IgG4
- Count (human Jagged1 [1]): 5
- FL1 (human Jagged1 [1]): 5030
- FL1 x count (human Jagged1 [1]): 25200
- % inhibition at 0.020 nM (full length human DLL4 [2]): 6%
- % inhibition at 0.070 nM (full length human DLL4 [2]): -3%
- % inhibition at 0.21 nM (full length human DLL4 [2]): 14%
- % inhibition at 0.62 nM (full length human DLL4 [2]): 27%
- % inhibition at 1.9 nM (full length human DLL4 [2]): 45%
- % inhibition at 5.6 nM (full length human DLL4 [2]): 119%
- % inhibition at 16.7 nM (full length human DLL4 [2]): 111%
- IC50 (full length human DLL4 [2]): 2.05 nM
- Dll1/mock ratio (human Dll1): 1.1
- IC50 (full length human DLL4 [3]): 1.15 µg/mL
- Jagged1/mock ratio (human Jagged1 [4]): 1.26
